From US20240336701A1 (Novartis, published 2024) come the findings set out here.

Experiment [1] has as its target T1, human ENTPD2, full length, on cells (human, UniProt Q9Y5L3 1-495).
T1 sequence: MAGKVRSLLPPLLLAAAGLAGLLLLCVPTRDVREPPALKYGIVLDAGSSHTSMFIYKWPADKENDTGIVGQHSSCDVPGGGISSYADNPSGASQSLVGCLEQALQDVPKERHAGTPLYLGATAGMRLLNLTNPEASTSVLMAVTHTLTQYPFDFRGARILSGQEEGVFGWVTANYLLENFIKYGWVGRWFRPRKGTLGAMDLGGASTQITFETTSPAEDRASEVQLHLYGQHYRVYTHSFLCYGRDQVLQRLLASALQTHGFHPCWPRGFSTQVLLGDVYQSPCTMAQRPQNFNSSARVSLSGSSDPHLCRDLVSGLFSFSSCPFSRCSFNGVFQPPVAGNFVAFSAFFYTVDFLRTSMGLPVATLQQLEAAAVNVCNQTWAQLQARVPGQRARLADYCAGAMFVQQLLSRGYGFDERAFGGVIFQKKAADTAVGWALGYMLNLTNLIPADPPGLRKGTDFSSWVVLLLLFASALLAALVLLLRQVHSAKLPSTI
The experiment can be described thus: cell-based or functional assay.

Experiment [2] addresses T2, cynomolgus ENTPD2, full length, on cells (cynomolgus macaque, UniProt Q9Y5L3 1-495 (human entry)).
T2 chain: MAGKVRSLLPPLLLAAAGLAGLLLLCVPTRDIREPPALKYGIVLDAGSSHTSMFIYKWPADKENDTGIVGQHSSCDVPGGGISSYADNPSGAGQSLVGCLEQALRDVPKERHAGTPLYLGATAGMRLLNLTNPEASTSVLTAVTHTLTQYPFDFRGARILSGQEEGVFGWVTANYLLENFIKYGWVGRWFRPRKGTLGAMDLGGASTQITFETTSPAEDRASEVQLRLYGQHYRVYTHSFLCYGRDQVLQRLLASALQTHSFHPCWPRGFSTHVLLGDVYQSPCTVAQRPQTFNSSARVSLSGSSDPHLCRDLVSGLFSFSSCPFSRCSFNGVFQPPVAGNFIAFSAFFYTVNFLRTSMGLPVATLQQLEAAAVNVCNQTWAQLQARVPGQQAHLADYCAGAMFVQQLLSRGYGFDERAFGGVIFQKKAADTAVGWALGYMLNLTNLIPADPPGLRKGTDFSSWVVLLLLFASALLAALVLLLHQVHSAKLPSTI
Briefly: cell-based or functional assay.
Wherever Cyno ENTPD2 NIH/3T3 Assay % inhibition is given: test concentration or dose not given here.
Wherever Human ENTPD2 NIH/3T3 Assay % inhibition is given: test concentration or dose not given here.
Wherever RKO Assay % inhibition is given: test concentration or dose not given here.

B1: ANTI-HUMAN ENTPD2 MAB4 (antibody, human IgG1, kappa, V domains shown)
VH: QIQLQESGPGLVKPSQTLSLTCTVSGYSITSGYYWNWIRQHPGKGLEWIGYISYDADNNYNPSLKNRVTISRDTSKNQFSLKLSSVTAADTAVYYCAGGYYRYGLGSYRGSYYYVMDYWGQGTTVTVSS
VL: ETVLTQSPATLSVSPGERATISCKASQSVDYEGHSYMNWYQQKPGQAPRLLIYAASNLESGIPARFSGSGSGTDFTLTISSVEPEDAATYYCQQSNEDPPTFGGGTKLEIKR
As for B1, in experiment [1], the “Human ENTPD2 NIH/3T3 Assay % inhibition” value came out at 87%, the “Human ENTPD2 NIH/3T3 Assay IC50” value stood at 0.2 nM, the “RKO Assay % inhibition” value came to 74% and the “RKO Assay IC50” value was determined as 0.2 nM. For the same molecule, in experiment [2], the “Cyno ENTPD2 NIH/3T3 Assay % inhibition” value came out at 75% and the “Cyno ENTPD2 NIH/3T3 Assay IC50” value is 2.2 nM.

B2: ANTI-HUMAN ENTPD2 MAB6 (antibody, human IgG1, kappa, V domains shown)
VH: QVQLQESGPGLVKPSQTLSLTCTVSGYSITSGYYWNWIRQHPGKGLEWMGYISYDADNNYNPSLKNRITISRDTSKNQFSLKLSSVTAADTAVYYCAGGYYRYGLGSYSGSYYYVMDYWGQGTTVTVSS
VL: DTQMTQSPSSLSVSVGDRATITCKASQSVDYEGHSYMNWYQQKPGKAPKLLIYAASNLESGVPSRFSGSGSGTDFTLTISSVQPEDFATYYCQQSNEDPPTFGGGTKLEIKR
Regarding B2, in experiment [1], the “Human ENTPD2 NIH/3T3 Assay % inhibition” value worked out at 95%, the “Human ENTPD2 NIH/3T3 Assay IC50” value turned out to be 0.3 nM, the “RKO Assay % inhibition” value turned out to be 90% and the “RKO Assay IC50” value was 0.2 nM. In experiment [2], the “Cyno ENTPD2 NIH/3T3 Assay % inhibition” value came out at 73% and the “Cyno ENTPD2 NIH/3T3 Assay IC50” value was determined as 3.3 nM.

B3: ANTI-HUMAN ENTPD2 MAB5 (antibody, human IgG1, kappa, V domains shown)
VH: QIQLQESGPGLVKPSQTLSLTCTVSGYSITSGYYWNWIRQHPGKGLEWIGYISYDADNNYNPSLKNRVTISRDTSKNQFSLKLSSVTAADTAVYYCAGGYYRYGLGSYRGSYYYVMDYWGQGTTVTVSS
VL: ETVLTQSPATLSVSPGERATISCKASQSVDYDGNSYMNWYQQKPGQAPRLLIYAASNLESGIPARFSGSGSGTDFTLTISSVEPEDAATYYCQQSNEDPPTFGGGTKLEIKR
Regarding B3, in experiment [1], the “Human ENTPD2 NIH/3T3 Assay % inhibition” value was determined as 95%, the “Human ENTPD2 NIH/3T3 Assay IC50” value was found to be 0.3 nM, the “RKO Assay % inhibition” value was determined as 80% and the “RKO Assay IC50” value is 0.2 nM. Further, in experiment [2], the “Cyno ENTPD2 NIH/3T3 Assay % inhibition” value worked out at 80% and the “Cyno ENTPD2 NIH/3T3 Assay IC50” value was determined as 1.5 nM.

B4: ANTI-HUMAN ENTPD2 MAB2 (antibody, human IgG1, kappa)
heavy: not shown
light: EIVLTQSPATLSASPGERITLSCSASSSVSYIHWYQQKPGQAPRLLIYSTSNLASGIPARFSGSGSGTFYTLTISSVEPEDAAVYYCHQWSSYPWTFGGGTKLEIKRTVAAPSVFIFPPSDEQLKSGTASVVCLLNNFYPREAKVQWKVDNALQSGNSQESVTEQDSKDSTYSLSSTLTLSKADYEKHKVYACEVTHQGLSSPVTKSFNRGEC
Turning to B4, in experiment [1], the “Human ENTPD2 NIH/3T3 Assay % inhibition” value was found to be 98%, the “Human ENTPD2 NIH/3T3 Assay IC50” value came out at 1.4 nM, the “RKO Assay % inhibition” value was determined as 86% and the “RKO Assay IC50” value is 0.8 nM. Besides, in experiment [2], the “Cyno ENTPD2 NIH/3T3 Assay % inhibition” value came to 84% and the “Cyno ENTPD2 NIH/3T3 Assay IC50” value was 2.7 nM.

B5: ANTI-HUMAN ENTPD2 MAB7 (antibody, human IgG1, kappa)
heavy: not shown
light: EIVLTQSPATLSASPGEEITLSCSASSSVSYIHWYQQKPGQAPRLLIYSTSNLASGIPARFSGSGSGTFYTLTISSVEPEDAAVYYCHQWSSYPWTFGGGTKLEIKRTVAAPSVFIFPPSDEQLKSGTASVVCLLNNFYPREAKVQWKVDNALQSGNSQESVTEQDSKDSTYSLSSTLTLSKADYEKHKVYACEVTHQGLSSPVTKSFNRGEC
Regarding B5, in experiment [1], the “Human ENTPD2 NIH/3T3 Assay % inhibition” value was 95%, the “Human ENTPD2 NIH/3T3 Assay IC50” value amounted to 0.8 nM, the “RKO Assay % inhibition” value is 92% and the “RKO Assay IC50” value was found to be 0.6 nM. In experiment [2], the “Cyno ENTPD2 NIH/3T3 Assay % inhibition” value is 82% and the “Cyno ENTPD2 NIH/3T3 Assay IC50” value is 2.7 nM.

B6: ANTI-HUMAN ENTPD2 MAB3 (antibody, human IgG1, kappa, V domains shown)
VH: QVQLVQSGAEVVKPGASVKISCKASGYTFTDYNMDWVKQAPGQRLEWIGDINPKYDISTYNQQFKGKATITVDTSASTAYMELSSLRSEDTAVYYCARRGFFLYYGINYYYFDVWGQGTLVTVSS
VL: EIVLTQSPATLSASPGERITLSCSASSSVSYIHWYQQKPGQAPRLLIYSTSNLASGIPARFSGSGSGTFYTLTISSVEPEDAAVYYCHQWSSYPWTFGGGTKLEIKR
Turning to B6, in experiment [1], the “Human ENTPD2 NIH/3T3 Assay % inhibition” value came out at 91%, the “Human ENTPD2 NIH/3T3 Assay IC50” value was 1.8 nM, the “RKO Assay % inhibition” value is 95% and the “RKO Assay IC50” value came to 1.6 nM. In addition, in experiment [2], the “Cyno ENTPD2 NIH/3T3 Assay % inhibition” value was 84% and the “Cyno ENTPD2 NIH/3T3 Assay IC50” value was 5.8 nM.

B7: ANTI-HUMAN ENTPD2 MAB8 (antibody, human IgG1, lambda, V domains shown)
VH: QVQLQQSGPGLVKPSQTLSLTCAISGDSVSSSSAAWNWIRQSPSRGLEWLGRIYYRSKWYNDYAVSVKSRITINPDTSKNQFSLQLNSVTPEDTAVYYCARGSYVTSSYEGFDYWGQGTLVTVSS
VL: SYELTQPLSVSVALGQTARITCSGDNLPEKYAYWYQQKPGQAPVLVIYDDNKRPSGIPERFSGSNSGNTATLTISRAQAGDEADYYCQSYGKWGWTWVFGGGTKLTVLG
Consider B7, for which, in experiment [1], the “Human ENTPD2 NIH/3T3 Assay % inhibition” value was determined as 97%, the “Human ENTPD2 NIH/3T3 Assay IC50” value is 0.1 nM, the “RKO Assay % inhibition” value was found to be 95% and the “RKO Assay IC50” value worked out at 0.2 nM. Also, in experiment [2], the “Cyno ENTPD2 NIH/3T3 Assay % inhibition” value was 96% and the “Cyno ENTPD2 NIH/3T3 Assay IC50” value is 0.9 nM.

B8: ANTI-HUMAN ENTPD2 MAB9 (antibody, human IgG1, lambda, V domains shown)
VH: QVQLVQSGAEVKKPGSSVKVSCKASGGTFDSYAVSWVRQAPGQGLEWMGRIVPWLGHTQYAQKFQGRVTITADESTSTAYMELSSLRSEDTAVYYCARESPGYRYSFDVWDQGTLVTVSS
VL: SYELTQPLSVSVALGQTARITCSGDAIGEKYVYWYQQKPGQAPVLVIYDDNNRPSGIPERFSGSNSGNTATLTISRAQAGDEADYYCASYDLQQARWVFGGGTKLTVLG
In the case of B8, in experiment [1], the “Human ENTPD2 NIH/3T3 Assay % inhibition” value was 92%, the “Human ENTPD2 NIH/3T3 Assay IC50” value is 0.3 nM, the “RKO Assay % inhibition” value stood at 70% and the “RKO Assay IC50” value came to 0.1 nM. Further, in experiment [2], the “Cyno ENTPD2 NIH/3T3 Assay % inhibition” value was found to be 71% and the “Cyno ENTPD2 NIH/3T3 Assay IC50” value came to 0.3 nM.

B9: ANTI-HUMAN ENTPD2 MAB10 (antibody, human IgG1, lambda, V domains shown)
VH: QVQLVQSGAEVKKPGSSVKVSCKASGGTFDSYAVSWVRQAPGQGLEWMGRIVPWLGFTRYAQKFQGRVTITADESTSTAYMELSSLRSEDTAVYYCARESPGYRYSFDVWDQGTLVTVSS
VL: SYELTQPLSVSVALGQTARITCSGDAIGEKYVYWYQQKPGQAPVLVIYDDNNRPSGIPERFSGSNSGNTATLTISRAQAGDEADYYCASYDLQQARWVFGGGTKLTVLG
In the case of B9, in experiment [1], the “Human ENTPD2 NIH/3T3 Assay % inhibition” value was 88%, the “Human ENTPD2 NIH/3T3 Assay IC50” value amounted to 0.4 nM, the “RKO Assay % inhibition” value was 77% and the “RKO Assay IC50” value amounted to 0.2 nM. In addition, in experiment [2], the “Cyno ENTPD2 NIH/3T3 Assay % inhibition” value is 86% and the “Cyno ENTPD2 NIH/3T3 Assay IC50” value turned out to be 0.5 nM.

B10: ANTI-HUMAN ENTPD2 MAB12 (antibody, human IgG1, kappa, V domains shown)
VH: EVLLVESGGGLVQPGGSLRLSCAASGFTFNSCSMNWVRQAPGKGLEWVSYISSSSSTIYYADSVKGRFTISRDNAKNSLYLQMNSLKDEDTAVYYCARDQGNWNYDDYYNGLDVWGQGTTVTVSS
VL: not shown
Consider B10, for which, in experiment [1], the “Human ENTPD2 NIH/3T3 Assay % inhibition” value was 68% and the “Human ENTPD2 NIH/3T3 Assay IC50” value worked out at 26.6 nM.

B11: ANTI-HUMAN ENTPD2 MAB11 (antibody, human IgG1, kappa, V domains shown)
VH: EVQLLESGGGLVQSGGSLRLSCAASGFTFSSYAMSWVRQAPGKGLEWVSVISGSGGSTYYADSVKGRFTISRDNSKNTLYLQMNSLRAEDTAVYYCARGDDYGDDYYYYGMDVWGQGTTVTVSS
VL: not shown
For the molecule B11, in experiment [1], the “Human ENTPD2 NIH/3T3 Assay % inhibition” value was determined as 55% and the “Human ENTPD2 NIH/3T3 Assay IC50” value is 1.5 nM.
